This note sets out measurements from PMC10873206.

A value given as a limit tells only on which side of the number the result lay.

The target in this experiment is UBE2R1 E108A (human) (UniProt P49427).
Chain of UBE2R1 E108A (human) (P49427 whole entry E108A): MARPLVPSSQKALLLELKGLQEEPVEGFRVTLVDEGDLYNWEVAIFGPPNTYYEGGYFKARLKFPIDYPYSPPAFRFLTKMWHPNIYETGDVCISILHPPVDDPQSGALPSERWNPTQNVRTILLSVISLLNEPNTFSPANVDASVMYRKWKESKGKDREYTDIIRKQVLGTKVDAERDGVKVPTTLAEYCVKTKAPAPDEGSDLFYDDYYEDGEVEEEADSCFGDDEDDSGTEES

Consider “D77 acceptor ubiquitin R54D (from UniProt P0CG48 1-76) (natural protein)”, for which the Km of unanchored D77 acceptor ubiquitin for UBE2R1 in di-ubiquitin synthesis (K48R donor ubiquitin, neddylated CUL2–RBX1 WT); saturation not reached, top concentration given was more than 800 µM.
